# Reference: publication PMC8632240
# pIC50: −log10 of the molar value.
# Biological target: human angiotensin-converting enzyme 2 extracellular domain fused to mouse Fc (hACE2-ECD-mFc) (human) (UniProt Q9BYF1)
# Experiment: ELISA
# Sequence of human angiotensin-converting enzyme 2 extracellular domain fused to mouse Fc (hACE2-ECD-mFc) (human) (Q9BYF1 19-617): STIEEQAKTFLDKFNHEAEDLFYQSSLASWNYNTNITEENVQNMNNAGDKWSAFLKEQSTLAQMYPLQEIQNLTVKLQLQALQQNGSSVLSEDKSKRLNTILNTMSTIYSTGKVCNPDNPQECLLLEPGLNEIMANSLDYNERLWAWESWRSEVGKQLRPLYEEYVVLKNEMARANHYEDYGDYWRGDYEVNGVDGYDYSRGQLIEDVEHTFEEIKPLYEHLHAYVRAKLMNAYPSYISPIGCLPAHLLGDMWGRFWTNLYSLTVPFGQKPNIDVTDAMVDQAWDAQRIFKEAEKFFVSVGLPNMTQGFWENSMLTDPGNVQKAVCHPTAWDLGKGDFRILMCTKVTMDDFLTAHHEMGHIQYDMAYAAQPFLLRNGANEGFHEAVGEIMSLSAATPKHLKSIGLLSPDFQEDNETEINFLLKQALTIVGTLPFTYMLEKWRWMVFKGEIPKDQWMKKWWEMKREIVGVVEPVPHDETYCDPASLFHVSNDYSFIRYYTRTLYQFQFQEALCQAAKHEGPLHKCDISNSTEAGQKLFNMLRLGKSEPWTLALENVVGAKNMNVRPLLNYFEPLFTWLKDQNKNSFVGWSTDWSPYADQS
substance,measurement,value
"SARS-CoV-2 S-RBD reference (spike receptor-binding domain, reference type) (from UniProt P0DTC2 319-541) (domain or fragment)",pIC50,6.91
